One assay deals with GCP cells. The experiment in a line: Clonogenicity / long-term propagation of GCP neurosphere cultures. Format: cell-based, mouse. On the procedure:
(§1) After surgical resection from a mouse on the seventh day of postnatal life (P7) the cerebellum was mechanically shredded in a buffer containing HBSS, glucose and antibiotics, and DNase (at concentrations as defined above) and the individual cells thus obtained were counted and plated at a dilution of 16000 cells/cm^2 on a medium composed of DMEM-F12, glucose, Vitamin A-free B27, insulin, NALC, heparin, antibiotics (at concentrations as defined above) and SAG (200 nM) and EGF ([…]). On this medium the cells can be enriched and maintained for an unlimited time, after periodical dissociation of the spheres with Accutase® (2-3 times per week) and propagation by dilution (to prevent excessive growth and consequent death from nutrient deficiency and hypoxia). The reaction conditions were as described above.

The subject of another assay is Shh pathway. The experiment in a line: Shh pathway expression (Gli1, N-Myc; Western Blot, real time Q-PCR) in GCP neurosphere cultures. It counts as cell-based, mouse. The note with it: factor alone, FIG. 4. On the procedure:
as §1
(Immunoblotting shows a protein as a band on a membrane.)

B1: EGF: Epidermal Growth Factor (protein, UniProt P01133 23-1207, looked up)
Pro-epidermal growth factor: PQHWSCPEGTLAGNGNSTCVGPAPFLIFSHGNSIFRIDTEGTNYEQLVVDAGVSVIMDFHYNEKRIYWVDLERQLLQRVFLNGSRQERVCNIEKNVSGMAINWINEEVIWSNQQEGIITVTDMKGNNSHILLSALKYPANVAVDPVERFIFWSSEVAGSLYRADLDGVGVKALLETSEKITAVSLDVLDKRLFWIQYNREGSNSLICSCDYDGGSVHISKHPTQHNLFAMSLFGDRIFYSTWKMKTIWIANKHTGKDMVRINLHSSFVPLGELKVVHPLAQPKAEDDTWEPEQKLCKLRKGNCSSTVCGQDLQSHLCMCAEGYALSRDRKYCEDVNECAFWNHGCTLGCKNTPGSYYCTCPVGFVLLPDGKRCHQLVSCPRNVSECSHDCVLTSEGPLCFCPEGSVLERDGKTCSGCSSPDNGGCSQLCVPLSPVSWECDCFPGYDLQLDEKSCAASGPQPFLLFANSQDIRHMHFDGTDYGTLLSQQMGMVYALDHDPVENKIYFAHTALKWIERANMDGSQRERLIEEGVDVPEGLAVDWIGRRFYWTDRGKSLIGRSDLNGKRSKIITKENISQPRGIAVHPMAKRLFWTDTGINPRIESSSLQGLGRLVIASSDLIWPSGITIDFLTDKLYWCDAKQSVIEMANLDGSKRRRLTQNDVGHPFAVAVFEDYVWFSDWAMPSVMRVNKRTGKDRVRLQGSMLKPSSLVVVHPLAKPGADPCLYQNGGCEHICKKRLGTAWCSCREGFMKASDGKTCLALDGHQLLAGGEVDLKNQVTPLDILSKTRVSEDNITESQHMLVAEIMVSDQDDCAPVGCSMYARCISEGEDATCQCLKGFAGDGKLCSDIDECEMGVPVCPPASSKCINTEGGYVCRCSEGYQGDGIHCLDIDECQLGEHSCGENASCTNTEGGYTCMCAGRLSEPGLICPDSTPPPHLREDDHHYSVRNSDSECPLSHDGYCLHDGVCMYIEALDKYACNCVVGYIGERCQYRDLKWWELRHAGHGQQQKVIVVAVCVVVLVMLLLLSLWGAHYYRTQKLLSKNPKNPYEESSRDVRSRRPADTEDGMSSCPQPWFVVIKEHQDLKNGGQPVAGEDGQAADGSMQPTSWRQEPQLCGMGTEQGCWIPVSSDKGSCPQVMERSFHMPSYGTQTLEGGVEKPHSLLSANPLWQQRALDPPHQMELTQ
modifications: Pro-epidermal growth factor
B1: the “proliferative power of GCP cells” value in the assay with GCP cells is on record as “ensures its unlimited proliferative power”. Also, the “expression of markers typical of GCP” value in the assay with Shh pathway is reported as “does not express the markers typical of GCP”.
